Laboratory results published in paper PMC3887213 (2013).

B1: LRRK2 RocCOR tandem domain (LexA-BD bait, wild type) [human] / itself (parent complex)
chain: KAVPYNRMKLMIVGNTGSGKTTLLQQLMKTKKSDLGMQSATVGIDVKDWPIQIRDKRKRDLVLNVWDFAGREEFYSTHPHFMTQRALYLAVYDLSKGQAEVDAMKPWLFNIKARASSSPVILVGTHLDVSDEKQRKACMSKITKELLNKRGFPAIRDYHFVNATEESDALAKLRKTIINESLNFKIRDQLVVGQLIPDCYVELEKIILSERKNVPIEFPVIDRKRLLQLVRENQLQLDENELPHAVHFLNESGVLLHFQDPALQLSDLYFVEPKWLCKIMAQILTVKVEGCPKHPKGIISRRDVEKFLSKKRKFPKNYMSQYFKLLEKFQIALPIGEEYLLVPSSLSDHRPVIELPHCENSEIIIRLYEMPYFPMGFWSRLINRLLEISPYMLSGRERALRPNRMYWRQGIYL

Variants of: B1
Assay: quantitative yeast two-hybrid (Q-YTH); n = 6; read off a plot

Variant	percent of parent [%]
chain 1 T16A	~93
chain 1 T164D	~98

More lines, now with the values ahead:

percent of parent [%]	Variant
~97	chain 1 T16D
~110	chain 1 T164A
